Measurements published in article PMC7439480, “Phosphorylation-Dependent Assembly of a 14-3-3 Mediated Signaling Complex during Red Blood Cell Invasion by Plasmodium falciparum Merozoites” (mBio, 2020).
Non-standard residues stand in square brackets, D forms with d. No end group written: not given here. pS = N[C@@H](COP(=O)(O)O)C(=O)O

B1: 14-3-3 binding peptide AA (ARSHpSYPA) (peptide)
peptide: ARSH[pS]YPA
notes: Coupled to agarose beads (Pierce co-IP kit) for the pull-down; also called phosphopeptide AA; source: synthetic peptide
B2: 14-3-3 binding peptide RA (RLYHpSLPA) (peptide)
peptide: RLYH[pS]LPA
notes: Coupled to agarose beads (Pierce co-IP kit) for the pull-down; also called phosphopeptide RA; source: synthetic peptide

Molecular target: T1, recombinant glutathione S-transferase (GST)-tagged Pf14-3-3I protein (P. falciparum, UniProt C0H4V6 1-262)
T1 construct: 14-3-3 protein I, P. falciparum, PF3D7_0818200; also called Pf14-3-3I-GST; recombinant Pf14-3-3I; source: recombinant
T1 sequence: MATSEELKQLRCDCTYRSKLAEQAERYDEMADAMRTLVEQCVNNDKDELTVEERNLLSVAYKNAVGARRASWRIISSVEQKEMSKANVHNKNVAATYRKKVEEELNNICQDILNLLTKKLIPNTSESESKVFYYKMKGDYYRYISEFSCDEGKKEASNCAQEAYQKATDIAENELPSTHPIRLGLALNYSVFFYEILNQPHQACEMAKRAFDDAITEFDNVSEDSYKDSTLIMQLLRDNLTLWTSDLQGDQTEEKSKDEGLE
Test: pull-down; peptides coupled to agarose beads (Pierce co-IP kit) incubated with GST-tagged Pf14-3-3I; eluates blotted with anti-Pf14-3-3I mouse sera; noncoated beads as control
Settings: both partners purified

Binder | binding result
B1 | binds
B2 | binds
